Data on one molecule can be found in publication PMC4705653, “Mcm10 coordinates the timely assembly and activation of the replication fork helicase” (Nucleic Acids Research, 2015).

The target in the experiment is T1, PKA-Mcm3 (radiolabeled) (budding yeast, UniProt P24279 1-971, 32P label on the PKA tag (protein kinase A with [gamma-32P]-ATP)).
T1 construct: Mcm3, budding yeast; not shown: PKA tag, N-terminal, kept
As to the kind of experiment: pull-down; 30 pmol GST-tagged protein on Glutathione Sepharose, varying concentrations of 32P-labelled PKA-tagged protein in solution; GST binding buffer (40 mM Tris–HCl pH 7.5, 100 mM NaCl, 0.1 mM EDTA, 10% glycerol, 0.1% Triton X-100, 1 mM DTT, 0.1 mg/ml BSA), 100 μl, 30°C, 10 min; SDS-PAGE and phosphorimaging; in some panels with 5 mM ATP or ATPγS, or with a third labelled protein (Mcm10, Sld3) added. Conditions: both partners purified.

T1 sequence (P24279 whole entry): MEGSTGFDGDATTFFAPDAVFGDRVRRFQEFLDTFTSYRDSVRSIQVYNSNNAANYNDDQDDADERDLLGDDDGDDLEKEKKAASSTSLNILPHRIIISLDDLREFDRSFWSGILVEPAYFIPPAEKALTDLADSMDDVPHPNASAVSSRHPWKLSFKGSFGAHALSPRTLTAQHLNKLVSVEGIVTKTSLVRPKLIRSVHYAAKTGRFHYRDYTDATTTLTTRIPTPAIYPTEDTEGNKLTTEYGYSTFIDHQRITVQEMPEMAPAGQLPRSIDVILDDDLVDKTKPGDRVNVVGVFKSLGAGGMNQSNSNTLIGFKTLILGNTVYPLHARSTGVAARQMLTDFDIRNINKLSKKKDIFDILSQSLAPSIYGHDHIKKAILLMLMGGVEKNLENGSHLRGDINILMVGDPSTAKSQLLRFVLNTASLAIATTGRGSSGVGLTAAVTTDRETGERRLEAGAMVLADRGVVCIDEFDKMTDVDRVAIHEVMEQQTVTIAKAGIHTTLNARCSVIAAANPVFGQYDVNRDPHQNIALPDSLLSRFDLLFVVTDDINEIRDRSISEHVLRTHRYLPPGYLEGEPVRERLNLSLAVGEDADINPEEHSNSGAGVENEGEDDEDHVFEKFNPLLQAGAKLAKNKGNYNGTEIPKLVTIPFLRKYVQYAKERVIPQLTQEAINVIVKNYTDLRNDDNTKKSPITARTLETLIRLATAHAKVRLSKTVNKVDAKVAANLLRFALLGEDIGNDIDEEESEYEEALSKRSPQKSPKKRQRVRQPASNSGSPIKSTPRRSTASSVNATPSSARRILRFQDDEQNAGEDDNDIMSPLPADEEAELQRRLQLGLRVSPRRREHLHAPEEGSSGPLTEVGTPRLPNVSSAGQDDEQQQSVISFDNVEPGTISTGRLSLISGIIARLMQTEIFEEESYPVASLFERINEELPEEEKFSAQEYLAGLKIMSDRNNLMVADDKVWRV

B1: GST-Mcm10 (natural protein, budding yeast, UniProt P32354 1-571, looked up)
chain: MNDPREILAVDPYNNITSDEEDEQAIARELEFMERKRQALVERLKRKQEFKKPQDPNFEAIEVPQSPTKNRVKVGSHNATQQGTKFEGSNINEVRLSQLQQQPKPPASTTTYFMEKFQNAKKNEDKQIAKFESMMNARVHTFSTDEKKYVPIITNELESFSNLWVKKRYIPEDDLKRALHEIKILRLGKLFAKIRPPKFQEPEYANWATVGLISHKSDIKFTSSEKPVKFFMFTITDFQHTLDVYIFGKKGVERYYNLRLGDVIAILNPEVLPWRPSGRGNFIKSFNLRISHDFKCILEIGSSRDLGWCPIVNKKTHKKCGSPINISLHKCCDYHREVQFRGTSAKRIELNGGYALGAPTKVDSQPSLYKAKGENGFNIIKGTRKRLSEEEERLKKSSHNFTNSNSAKAFFDEKFQNPDMLANLDNKRRKIIETKKSTALSRELGKIMRRRESSGLEDKSVGERQKMKRTTESALQTGLIQRLGFDPTHGKISQVLKSSVSGSEPKNNLLGKKKTVINDLLHYKKEKVILAPSKNEWFKKRSHREEVWQKHFGSKETKETSDGSASDLEII
notes: Mcm10, budding yeast, full length PCR product in SpeI/XhoI sites of pET-41; source: cloned in pET-41 vector; not shown: GST, N-terminal, kept
As for B1, the binding result is reported as “binds”.
